Data reported in paper PMC10643153.
“And” between values parts separate entries of the source, which are not always exact repeats. Identical values can stand only once.

Legend:
[1] = target: recombinant goldfish AdipoQ (His-tagged gAdipoQ) (goldfish (Carassius auratus)); assay: native gel or EMSA; self-association; protein electrophoresis in native gel under non-denaturing conditions, Coomassie blue staining; parallel SDS-PAGE as reference for the monomer
[2] = target: recombinant goldfish AdipoQ (His-tagged gAdipoQ) (goldfish (Carassius auratus)); assay: SEC-MALS; self-association; top five fractions of the SEC peak pooled, 200-µl sample on a Superose 12 10/300 GL column linked with a DynaPro NanoStar instrument; apparent MW in solution

Substance: recombinant goldfish AdipoQ (His-tagged gAdipoQ) (domain or fragment)
- stoichiometry N [1]: 3 and 6
- stoichiometry N [2]: 3
